Test results: patent US20210179726A1 (DINGFU BIOTARGET, published 2021)

T1: hCD27-muFc (human; mouse, UniProt P26842 20-192)
T1 construct: range 1-192; Secreted from HEK293, Protein A purified; not shown: mouse IgG1-Fc (muFc), residues 98 to 324 of UniProt P01868
T1 sequence (looked up): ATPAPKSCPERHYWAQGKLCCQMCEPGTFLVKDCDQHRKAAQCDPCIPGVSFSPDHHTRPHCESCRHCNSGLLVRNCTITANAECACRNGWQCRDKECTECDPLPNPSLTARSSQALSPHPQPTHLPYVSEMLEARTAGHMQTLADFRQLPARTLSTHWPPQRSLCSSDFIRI

T2: hCD27-EGFP on HEK293 cells (human, UniProt P26842 20-260)
T2 construct: EGFP fusion expressed on transfected HEK293 cells; also called CD27-EGFP cells; cell surface CD27
T2 sequence (looked up): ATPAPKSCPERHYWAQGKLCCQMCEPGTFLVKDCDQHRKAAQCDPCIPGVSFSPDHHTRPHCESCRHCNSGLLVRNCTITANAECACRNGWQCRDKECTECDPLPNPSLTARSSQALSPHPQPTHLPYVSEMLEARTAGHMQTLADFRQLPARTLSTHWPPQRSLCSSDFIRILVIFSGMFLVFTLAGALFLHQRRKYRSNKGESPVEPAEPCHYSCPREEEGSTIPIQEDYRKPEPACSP


Columns and labels:
hCD27-muFc [1] = biological target: T1, hCD27-muFc; experiment: BLI (Octet K2), antibody on Protein A biosensor, hCD27-muFc in solution
Description: Using the BLI method, each humanized antibody was immobilized on a Protein A biosensor at a concentration of 10 μg/ml, while hCD27-muFc was subjected to 2-fold serial dilution, starting from 100 nM, to obtain 5 gradient dilutions for each antibody. The reaction plate was placed on the Octet K2 instrument. The parameters were set to Baseline 70 s, Association 80 s, Dissociation 300 s, Baseline 260 s, Loading 40 s, and Custom 5 s.

hCD27-muFc [2] = biological target: T1, hCD27-muFc; experiment: ELISA, plate coated with hCD27-muFc, Test 1
Description: (§1) The ELISA plate was coated with 2 μg/ml hCD27-muFc, 100 μl/well and incubated at 4° C. overnight. Then it was washed once with 10 mM, pH 7.4 PBS/Tween (0.05%), blocked with PBST containing 5% skimmed milk powder and incubated at 37° C. for 2 h. After washing the plate for 4 times, the humanized antibodies were added and incubated at 37° C. for 40 min, then it was washed for 4 times. Anti-human IgG-HRP-conjugated secondary antibody (Sigma, Cat #A0170-1M) was added and incubated at 37° C. for 40 min. After washing, the plate was developed with TMB substrate and spectrophotometric analysis was performed at OD₄₅₀. In FIGS. 5A-5B, each curve represents the binding result obtained for one of the humanized antibodies. From the results, it can be seen that all these humanized antibodies could bind to human CD27.

hCD27-muFc [3] = biological target: T1, hCD27-muFc; experiment: ELISA, plate coated with hCD27-muFc, Test 2
Description: as §1

[4] = biological target: T2, hCD27-EGFP on HEK293 cells; experiment: FACS titration on CD27-EGFP HEK293 cells, 8 three-fold dilutions from 20 µg/ml, anti-human Ig-APC secondary, MFI; table drawn under the plot, unit from the x axis; no upper plateau reached
Description: Based on the above results of ELISA, 7 humanized antibodies were selected to examine their affinities to cell surface CD27. Briefly, 5×10⁵ CD27-EGFP cells prepared in Example 1 were washed twice in PBS, each of the humanized antibodies (d16647, d12996, d9419, 14822, 9424, d14822, d12674) was added. The antibodies were subjected to 3-fold serial dilution, starting from 20 μg/ml, to obtain 8 gradient dilutions for each antibody. The antibodies and the cells were incubated at 4° C. for 30 min. Then, it was washed twice with PBS, anti-human Ig-APC (Jackson ImmunoResearch Laboratories, Cat #109-135-098) was added, and incubated at 4° C. for 30 min, washed twice with PBS and resuspended in 300 μl PBS. Flow cytometry was then performed, and the results are shown in FIG. 6. m2F11 was used as a control.

Kd (hCD27-muFc [1]) [nM] | koff (hCD27-muFc [1]) [s⁻¹] | kon (hCD27-muFc [1]) [M⁻¹ s⁻¹] | EC50 (hCD27-muFc [2]) [µg/mL] | EC50 (hCD27-muFc [3]) [µg/mL] | LogEC50 [4] | Binder
4.98 | 0.000368 | 73900 | 0.0506 | – | – | 12996 (antibody, human IgG1, V domains shown, not shown: a dimerising Fc or GST, Humanized m2F11, human IgG1 / kappa) VH: EVHLQESGGGLVKPGGSLRLSCAASGFTFSSYAMSWVRQAPEKGLEWVAIIGDGDTYTYYPDSVKGRFTISRDNSKNRLYLQMNSLKSEDTAMYYCVRTRGGPFDYWGQGTTLTVSS VL: EILLTQSPAFMSATPGEKVTITCSASSSVGSMHWYQQKSGQSPRRLIYDTSKLASGVPDRFSGSGSGTDYTLTISSLEAEDAATYYCQQWSSIPPTFGAGTTLELK
4.27 | 0.000334 | 78200 | – | 0.0339 | 0.373 Log10(ug/ml) | d14822 (antibody, human IgG1, V domains shown, not shown: a dimerising Fc or GST, Humanized m2F11, human IgG1 / kappa) VH: EVHLQESGGGLVKPGGSLRLSCAASGFTFSSYAMSWVRQTPDKGLEWVAIIGDGDTYTYYPDSVKGRFTISRDNSKNTLYLQMNDLKSEDTAMYYCVRTRGGPFDYWGQGTTLTVSS VL: EILLTQSPAFMSATPGEKVTITCSASSSVGSMHWYQQKSGQSPRRLIYDTSKLASGVPDRFSGSGSGTDYTLTISSLEAEDAATYYCQQWSSIPPTFGAGTTLELK
3.05 | 0.000281 | 92100 | 0.0376 | – | 0.601 Log10(ug/ml) | d16647 (antibody, human IgG1, V domains shown, not shown: a dimerising Fc or GST, Humanized m2F11, human IgG1 / kappa) VH: QVELRESGGGLVKPGGSLRLSCAASGFTFSSYAMSWVRQTPDKGLEWVAIIGDGDTYTYYPDSVKGRFTISRDNSKNRLYLQMNDLKSEDTAMYYCVRTRGGPFDYWGQGTTLTVSS VL: EILLTQSPAFMSATPGEKVTITCSASSSVGSMHWYQQKSGQSPRRLIYDTSKLASGVPDRFSGSGSGTDYTLTISSLEAEDAATYYCQQWSSIPPTFGAGTTLELK
1.7 | 0.000205 | 120000 | 0.033 | – | 0.564 Log10(ug/ml) | d9419 (antibody, human IgG1, V domains shown, not shown: a dimerising Fc or GST, Humanized m2F11, human IgG1 / kappa) VH: EVHLQESGGALVKPGGSLRLSCAASGFTFSSYAMSWVRQKPEKNLEWVAIIGDGDTYTYYPDSVKGRFTISRDNAKNTLYLQMSDLKSEDTAMYYCVRTRGGPFDYWGQGTTLTVSS VL: EILLTQSPAFMSATPGEKVTITCSASSSVGSMHWYQQKSGQSPRRLIYDTSKLASGVPDRFSGSGSGTDYTLTISSLEAEDAATYYCQQWSSIPPTFGAGTTLELK
3.39 | 0.000326 | 96200 | 0.03 | – | 0.562 Log10(ug/ml) | d12996 (antibody, human IgG1, V domains shown, not shown: a dimerising Fc or GST, Humanized m2F11, human IgG1 / kappa) VH: EVHLQESGGGLVKPGGSLRLSCAASGFTFSSYAMSWVRQEPEKNLEWVAIIGDGDTYTYYPDSVKGRFTISRDNSKNRLYLQMNDLKSEDTAMYYCVRTRGGPFDYWGQGTTLTVSS VL: EILLTQSPAFMSATPGEKVTITCSASSSVGSMHWYQQKSGQSPRRLIYDTSKLASGVPDRFSGSGSGTDYTLTISSLEAEDAATYYCQQWSSIPPTFGAGTTLELK
3.66 | 0.000291 | 79500 | 0.0585 | – | – | 12674 (antibody, human IgG1, V domains shown, not shown: a dimerising Fc or GST, Humanized m2F11, human IgG1 / kappa) VH: EVHLQESGGGLVKPGGSLRLSCAASGFTFSSYAMSWVRQAPGKGLEWVAIIGDGDTYTYYPDSVKGRFTISRDNSKNRLYLQMNSLKSEDTAMYYCVRTRGGPFDYWGQGTTLTVSS VL: EILLTQSPAFMSATPGEKVTITCSASSSVGSMHWYQQKSGQSPRRLIYDTSKLASGVPDRFSGSGSGTDYTLTISSLEAEDAATYYCQQWSSIPPTFGAGTTLELK
2.73 | 0.000287 | 105000 | 0.0583 | – | – | 9419 (antibody, human IgG1, V domains shown, not shown: a dimerising Fc or GST, Humanized m2F11, human IgG1 / kappa) VH: EVHLQESGGALVKPGGSLRLSCAASGFTFSSYAMSWVRQAPEKGLEWVAIIGDGDTYTYYPDSVKGRFTISRDNAKNTLYLQMSNLKSEDTAMYYCVRTRGGPFDYWGQGTTLTVSS VL: EILLTQSPAFMSATPGEKVTITCSASSSVGSMHWYQQKSGQSPRRLIYDTSKLASGVPDRFSGSGSGTDYTLTISSLEAEDAATYYCQQWSSIPPTFGAGTTLELK
5.15 | 0.000499 | 97000 | 0.0427 | – | 0.62 Log10(ug/ml) | 14822 (antibody, human IgG1, V domains shown, not shown: a dimerising Fc or GST, Humanized m2F11, human IgG1 / kappa) VH: EVHLQESGGGLVKPGGSLRLSCAASGFTFSSYAMSWVRQMPGKGLEWVAIIGDGDTYTYYPDSVKGRFTISRDNSKNTLYLQMNSLKSEDTAMYYCVRTRGGPFDYWGQGTTLTVSS VL: EILLTQSPAFMSATPGEKVTITCSASSSVGSMHWYQQKSGQSPRRLIYDTSKLASGVPDRFSGSGSGTDYTLTISSLEAEDAATYYCQQWSSIPPTFGAGTTLELK
4.86 | 0.000348 | 71500 | – | 0.0445 | – | 16647 (antibody, human IgG1, V domains shown, not shown: a dimerising Fc or GST, Humanized m2F11, human IgG1 / kappa) VH: QVELRESGGGLVKPGGSLRLSCAASGFTFSSYAMSWVRQMPGKGLEWVAIIGDGDTYTYYPDSVKGRFTISRDNSKNRLYLQMNSLKSEDTAMYYCVRTRGGPFDYWGQGTTLTVSS VL: EILLTQSPAFMSATPGEKVTITCSASSSVGSMHWYQQKSGQSPRRLIYDTSKLASGVPDRFSGSGSGTDYTLTISSLEAEDAATYYCQQWSSIPPTFGAGTTLELK
5 | 0.000447 | 89400 | – | 0.0424 | 0.635 Log10(ug/ml) | d12674 (antibody, human IgG1, V domains shown, not shown: a dimerising Fc or GST, Humanized m2F11, human IgG1 / kappa) VH: EVHLQESGGGLVKPGGSLRLSCAASGFTFSSYAMSWVRQAPGKGLEWVAIIGDGDTYTYYPDSVKGRFTISRDNSKNRLYLQMNDLKSEDTAMYYCVRTRGGPFDYWGQGTTLTVSS VL: EILLTQSPAFMSATPGEKVTITCSASSSVGSMHWYQQKSGQSPRRLIYDTSKLASGVPDRFSGSGSGTDYTLTISSLEAEDAATYYCQQWSSIPPTFGAGTTLELK
7.02 | 0.000396 | 56500 | – | 0.0342 | 0.546 Log10(ug/ml) | 9424 (antibody, human IgG1, V domains shown, not shown: a dimerising Fc or GST, Humanized m2F11, human IgG1 / kappa) VH: EVHLQESGGGLVKPGGSLRLSCAASGFTFSSYAMSWVRQTPEKGLEWVAIIGDGDTYTYYPDSVKGRFTISRDNAKNTLYLQMNSLKSEDTAMYYCVRTRGGPFDYWGQGTTLTVSS VL: EILLTQSPAFMSATPGEKVTITCSASSSVGSMHWYQQKSGQSPRRLIYDTSKLASGVPDRFSGSGSGTDYTLTISSLEAEDAATYYCQQWSSIPPTFGAGTTLELK
